This note sets out measurements from PMC4020902.

The assay concerns the target human USP11 N-terminal DUSP-UBL (DU) domains, residues 24-244 (human). As to the kind of experiment: SEC; gel filtration of hUSP11DU at concentrations associated with crystallization. Background: SEC sorts molecules by how far they enter the pores of the column.

Consider “human USP11 N-terminal DUSP-UBL (DU) domains, residues 24-244 (domain or fragment)”, for which the fraction of dimer came out at 5%.
